{"source": "patent US20240101668A1", "about": "(WUGEN, published 2024)", "binders": {"B1": {"name": "Polypeptide No. 245 (scFv, V domains shown)", "VH": "QVQLVQSGAEVKKPGSSVKVSCKASGYTFTGFYIHWVRQAPGQGLEWMGGVIPFFSRTIYAQKFQGRVTITADESTSTAYMELSSLRSEDTAVYYCAYGANGHLYGMDAWGQGTTVTVSS", "VL": "EIVMTQSPATLSVSPGERATLSCRASQSVSSSYLAWYQQKPGQAPRLLIYGASTRATGIPARFSGSGSGTEFTLTISSLQSEDFAVYYCQQYSSSPLTFGQGTKVEIKR", "notes": "scFv"}, "B2": {"name": "Polypeptide No. 263 (scFv, V domains shown)", "VH": "QVQLVQSGAEVKKPGSSVKVSCKASGGTFSSYAISWVRQAPGQGLEWMGGIIPIVGVANYAQKLQGRVTITADESTSTAYMELSSLRSEDTAVYYCAKDIGGYPSDAFDIWGQGTTVTVSS", "VL": "B1 VL with G51D, A52V, S93G, L97I", "notes": "scFv"}, "B3": {"name": "Polypeptide No. 250 (scFv, V domains shown)", "VH": "QVQLVQSGAEVKKPGSSVKVSCKASGYTLTSFAMHWVRQAPGQGLEWMGRIIPMSGTANYAQKFQGRVTITADESTSTAYMELSSLRSEDTAVYYCASTSPDQYYYGMDVWGQGTTVTVSS", "VL": "B1 VL with S30G, Y33S, S93G, L97Y", "notes": "scFv"}, "B4": {"name": "Polypeptide No. 281 (scFv, V domains shown)", "VH": "QVQLVQSGAEVKKPGASVKVSCKASGYTFNSYGISWVRQAPGQGLEWMGIINPTGGSTTYAQKFQGRVTMTRDTSTSTVYMELSSLRSEDTAVYYCAKDPFVMDVWGQGTTVTVSS", "VL": "B1 VL with G51D, T54A, T57A, S93Y, S95T, L97Y, V105L", "notes": "scFv"}, "B5": {"name": "Polypeptide No. 268 (scFv, V domains shown)", "VH": "QVQLVQSGAEVKKPGSSVKVSCKASGGTFSTYALSWVRQAPGQGLEWMGGVIPVFGTTDYAHKFQGRVTITADESTSTAYMELSSLRSEDTAVYYCASMIIFGAGGWDAYYFQEWGQGTLVTVSS", "VL": "B1 VL with S30N, S31N, S32N, Y33Q, G51D, A52T, T54S, S93D, S94T, L97Y", "notes": "scFv"}, "B6": {"name": "Polypeptide No. 91 (scFv, V domains shown)", "VH": "QVQLVQSGAEVKKPGASVKVSCKASGGTFSSYAISWVRQAPGQGLEWMGWMNPNSGNTGYAQKFQGRVTMTRDTSTSTVYMELSSLRSEDTAVYYCAREDYYDSSGNFDYWGQGTLVTVSS", "VL": "DIQMTQSPSSLSASVGDRVTITCQASHDINIHLNWYQQKPGKAPKLLIYDASNLETGVPSRFSGSGSGTDFTLTISSLQPEDFATYYCQQAYSLPWTFGQGTKVEIKR", "notes": "scFv"}, "B7": {"name": "Polypeptide No. 191 (scFv, V domains shown)", "VH": "B6 VH", "VL": "B6 VL", "notes": "scFv"}, "B8": {"name": "Polypeptide No. 224 (scFv, V domains shown)", "VH": "QVQLVQSGAEVKKPGSSVKVSCKASGYTFTGYYMHWVRQAPGQGLEWMGVINPIYGTANYALKFQGRVTITADESTSTAYMELSSLRSEDTAVYYCAKAISSGWSNDAFDIWGQGTMVTVSS", "VL": "EIVMTQSPATLSVSPGERATLSCRASQSVSSDFLAWYQQKPGQAPRLLIYDTSSRASGIPARFSGSGSGTEFTLTISSLQSEDFAVYYCQQYAGPPTFGQGTRLEIKR", "notes": "scFv"}, "B9": {"name": "Polypeptide No. 89 (scFv, V domains shown)", "VH": "QVQLVQSGAEVKKPGASVKVSCKASGYTFTNYYMHWVRQAPGQGLEWMGWINPNSGDTNYEQKFQGRVTMTRDTSTSTVYMELSSLRSEDTAVYYCARDDRIQLWVPLVFWGQGTLVTVSS", "VL": "DIQMTQSPSSLSASVGDRVTITCRASQGISNYLAWYQQKPGKAPKLLIYSASNLQSGVPSRFSGSGSGTDFTLTISSLQPEDFATYYCQQSFSTPFTFGQGTKLEIKR", "notes": "scFv"}, "B10": {"name": "Polypeptide No. 90 (scFv, V domains shown)", "VH": "EVQLLESGGGLVQPGGSLRLSCAASGFTFSNSDMNWVRQAPGKGLEWVSYISGTGSTIYYADSVKGRFTISRDNSKNTLYLQMNSLRAEDTAVYYCAKDYDSSYGSGYYGMDVWGQGTTVTVSS", "VL": "B9 VL with G28S, S30Y, A34N, S50A, S91Y, F92G, S93N, T94A, F96L, L104V", "notes": "scFv"}, "B11": {"name": "Polypeptide No. 193 (scFv, V domains shown)", "VH": "B10 VH", "VL": "B9 VL with G28S, S30Y, A34N, S50A, S91Y, F92G, S93N, T94A, F96L, L104V", "notes": "scFv"}, "B12": {"name": "Polypeptide No. 100 (scFv, V domains shown)", "VH": "QVQLVQSGAEVKKPGASVKVSCKASGATRSWMHWVRQAPGQGLEWMGIINPSGDSTSYAQKFQGRVTMTRDTSTSTVYMELSSLRSEDTAVYYCAKEPYSSSPYYFDYWGQGTLVTVSS", "VL": "B9 VL with G28S, N31S, Y32W, S50G, N53S, F92Y, S93T, F96I, K103R", "notes": "scFv"}, "B13": {"name": "Polypeptide No. 226 (scFv, V domains shown)", "VH": "QVQLVQSGAEVKKPGASVKVSCKASGYTFTGYYMHWVRQAPGQGLEWMGIIDPSGGSTSYAQKFQGRVTMTRDTSTSTVYMELSSLRSEDTAVYYCARDRSLLWSGVGGMDVWGQGTTVTVSS", "VL": "B9 VL with S50G, F92Y, S93G, F96Y", "notes": "scFv"}, "B14": {"name": "Polypeptide No. 192 (scFv, V domains shown)", "VH": "B9 VH", "VL": "B9 VL", "notes": "scFv"}, "B15": {"name": "Polypeptide No. 210 (scFv, V domains shown)", "VH": "QVQLVQSGAEVKKPGSSVKVSCKASGYTLTELSMHWVRQAPGQGLEWMGGIIPISGTTKYAQKFQGRVTITADESTSTAYMELSSLRSEDTAVYYCARASPRYYMDVWGKGTTVTVSS", "VL": "not shown", "notes": "scFv"}, "B16": {"name": "Polypeptide No. 108 (scFv, V domains shown)", "VH": "QVQLVQSGAEVKKPGASVKVSCKASGYTFTNYDINWVRQAPGQGLEWMGWMNPNSGNTGLVEKFQGRVTMTRDTSTSTVYMELSSLRSEDTAVYYCARGWGHGYGDYKFDYWGQGTLVTVSS", "VL": "not shown", "notes": "scFv"}}, "test_in_all_cases": "FACS on cells", "key": {"[1]": {"molecular_target": "T1, huFLT3-M227 stably expressed on Ramos cells (human, UniProt P36888 27-993)", "T1 construct": "whole, on cells; also called FLT3 Mutant", "T1 sequence (P36888 27-993 T227M)": "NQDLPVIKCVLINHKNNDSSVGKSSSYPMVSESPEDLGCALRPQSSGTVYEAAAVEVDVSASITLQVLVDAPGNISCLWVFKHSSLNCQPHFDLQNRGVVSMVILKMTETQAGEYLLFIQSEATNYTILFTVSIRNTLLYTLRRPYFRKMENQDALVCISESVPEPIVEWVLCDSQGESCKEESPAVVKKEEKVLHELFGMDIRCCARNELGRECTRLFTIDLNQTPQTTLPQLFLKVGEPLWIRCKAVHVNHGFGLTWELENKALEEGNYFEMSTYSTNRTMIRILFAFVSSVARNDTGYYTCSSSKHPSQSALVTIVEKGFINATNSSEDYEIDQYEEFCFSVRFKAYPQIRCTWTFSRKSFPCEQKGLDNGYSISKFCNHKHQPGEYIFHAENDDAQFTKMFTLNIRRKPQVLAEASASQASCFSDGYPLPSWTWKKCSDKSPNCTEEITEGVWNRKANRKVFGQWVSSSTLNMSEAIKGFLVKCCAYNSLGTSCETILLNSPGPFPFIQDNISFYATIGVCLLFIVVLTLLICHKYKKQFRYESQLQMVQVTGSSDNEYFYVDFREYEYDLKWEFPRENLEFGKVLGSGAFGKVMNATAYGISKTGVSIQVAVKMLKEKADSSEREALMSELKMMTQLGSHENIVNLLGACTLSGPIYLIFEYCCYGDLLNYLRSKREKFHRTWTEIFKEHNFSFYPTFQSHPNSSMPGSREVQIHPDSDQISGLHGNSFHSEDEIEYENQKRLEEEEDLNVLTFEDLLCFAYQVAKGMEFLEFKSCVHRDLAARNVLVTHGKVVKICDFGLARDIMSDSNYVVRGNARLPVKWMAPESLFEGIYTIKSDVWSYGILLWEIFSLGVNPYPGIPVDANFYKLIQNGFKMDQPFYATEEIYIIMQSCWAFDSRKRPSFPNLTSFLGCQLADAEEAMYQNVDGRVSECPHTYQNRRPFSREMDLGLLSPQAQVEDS"}, "[2]": {"molecular_target": "T2, huCD33-R69 stably expressed on Jurkat cells (human, UniProt P20138 18-364)", "T2 construct": "whole, on cells; >200,000 receptors per cell; also called CD33 WT; CD33^ARG69", "T2 sequence (P20138 18-364)": "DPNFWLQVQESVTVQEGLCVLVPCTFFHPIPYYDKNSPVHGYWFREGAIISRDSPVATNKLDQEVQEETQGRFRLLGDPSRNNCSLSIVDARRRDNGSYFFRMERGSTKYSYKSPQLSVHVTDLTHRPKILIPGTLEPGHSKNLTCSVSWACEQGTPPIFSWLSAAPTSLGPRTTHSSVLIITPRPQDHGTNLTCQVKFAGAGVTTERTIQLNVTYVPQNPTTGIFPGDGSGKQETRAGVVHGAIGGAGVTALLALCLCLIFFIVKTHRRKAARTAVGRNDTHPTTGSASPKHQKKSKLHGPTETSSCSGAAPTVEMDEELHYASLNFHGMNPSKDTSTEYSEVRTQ"}, "[3]": {"molecular_target": "T3, huCD33-G69 stably expressed on Jurkat cells (human, UniProt P20138 18-364)", "T3 construct": "whole, on cells; >200,000 receptors per cell; also called CD33 Mutant; CD33 R69G", "T3 sequence (P20138 18-364 R69G)": "as the sequence (P20138 18-364) above, with R52G counted along it"}}, "note": "Residue numbers refer to the chain shown, from its start.", "data": [{"binder": "B1", "values": [{"measurement": "FACS geometric mean fold change over Jurkat parental", "setting": "[1]", "value": "2 to 10", "unit": "fold"}]}, {"binder": "B2", "values": [{"measurement": "FACS geometric mean fold change over Jurkat parental", "setting": "[1]", "value": "2 to 10", "unit": "fold"}]}, {"binder": "B3", "values": [{"measurement": "FACS geometric mean fold change over Jurkat parental", "setting": "[1]", "value": "2 to 10", "unit": "fold"}]}, {"binder": "B4", "values": [{"measurement": "FACS geometric mean fold change over Jurkat parental", "setting": "[1]", "value": "2 to 10", "unit": "fold"}]}, {"binder": "B5", "values": [{"measurement": "FACS geometric mean fold change over Jurkat parental", "setting": "[1]", "value": "2 to 10", "unit": "fold"}]}, {"binder": "B6", "values": [{"measurement": "FACS geometric mean fold change over Jurkat parental", "setting": "[2]", "value": "> 30", "unit": "fold"}, {"measurement": "FACS geometric mean fold change over Jurkat parental", "setting": "[3]", "value": "10 to 30", "unit": "fold"}]}, {"binder": "B7", "values": [{"measurement": "FACS geometric mean fold change over Jurkat parental", "setting": "[2]", "value": "> 30", "unit": "fold"}, {"measurement": "FACS geometric mean fold change over Jurkat parental", "setting": "[3]", "value": "10 to 30", "unit": "fold"}]}, {"binder": "B8", "values": [{"measurement": "FACS geometric mean fold change over Jurkat parental", "setting": "[1]", "value": "2 to 10", "unit": "fold"}]}, {"binder": "B9", "values": [{"measurement": "FACS geometric mean fold change over Jurkat parental", "setting": "[2]", "value": "10 to 30", "unit": "fold"}, {"measurement": "FACS geometric mean fold change over Jurkat parental", "setting": "[3]", "value": "10 to 30", "unit": "fold"}]}, {"binder": "B10", "values": [{"measurement": "FACS geometric mean fold change over Jurkat parental", "setting": "[2]", "value": "> 30", "unit": "fold"}, {"measurement": "FACS geometric mean fold change over Jurkat parental", "setting": "[3]", "value": "> 30", "unit": "fold"}]}, {"binder": "B11", "values": [{"measurement": "FACS geometric mean fold change over Jurkat parental", "setting": "[2]", "value": "> 30", "unit": "fold"}, {"measurement": "FACS geometric mean fold change over Jurkat parental", "setting": "[3]", "value": "> 30", "unit": "fold"}]}, {"binder": "B12", "values": [{"measurement": "FACS geometric mean fold change over Jurkat parental", "setting": "[2]", "value": "10 to 30", "unit": "fold"}, {"measurement": "FACS geometric mean fold change over Jurkat parental", "setting": "[3]", "value": "10 to 30", "unit": "fold"}]}, {"binder": "B13", "values": [{"measurement": "FACS geometric mean fold change over Jurkat parental", "setting": "[1]", "value": "2 to 10", "unit": "fold"}]}, {"binder": "B14", "values": [{"measurement": "FACS geometric mean fold change over Jurkat parental", "setting": "[2]", "value": "10 to 30", "unit": "fold"}, {"measurement": "FACS geometric mean fold change over Jurkat parental", "setting": "[3]", "value": "10 to 30", "unit": "fold"}]}, {"binder": "B15", "values": [{"measurement": "FACS geometric mean fold change over Jurkat parental", "setting": "[1]", "value": "2 to 10", "unit": "fold"}]}, {"binder": "B16", "values": [{"measurement": "FACS geometric mean fold change over Jurkat parental", "setting": "[2]", "value": "10 to 30", "unit": "fold"}, {"measurement": "FACS geometric mean fold change over Jurkat parental", "setting": "[3]", "value": "10 to 30", "unit": "fold"}]}]}
